B1: 14-3-3 protein sigma (Homo sapiens), P31947 (parent)
chain: MERASLIQKAKLAEQAERYEDMAAFMKGAVEKGEELSCEERNLLSVAYKNVVGGQRAAWRVLSSIEQKSNEEGSEEKGPEVREYREKVETELQGVCDTVLGLLDSHLIKEAGDAESRVFYLKMKGDYYRYLAEVATGDDKKRIIDSARSAYQEAMDISKKEMPPTNPIRLGLALNFSVFHYEIANSPEEAISLAKTTFDEAMADLHTLSEDSYKDSTLIMQLLRDNLTLWTADNAGEEGGEAPQEPQS
partner: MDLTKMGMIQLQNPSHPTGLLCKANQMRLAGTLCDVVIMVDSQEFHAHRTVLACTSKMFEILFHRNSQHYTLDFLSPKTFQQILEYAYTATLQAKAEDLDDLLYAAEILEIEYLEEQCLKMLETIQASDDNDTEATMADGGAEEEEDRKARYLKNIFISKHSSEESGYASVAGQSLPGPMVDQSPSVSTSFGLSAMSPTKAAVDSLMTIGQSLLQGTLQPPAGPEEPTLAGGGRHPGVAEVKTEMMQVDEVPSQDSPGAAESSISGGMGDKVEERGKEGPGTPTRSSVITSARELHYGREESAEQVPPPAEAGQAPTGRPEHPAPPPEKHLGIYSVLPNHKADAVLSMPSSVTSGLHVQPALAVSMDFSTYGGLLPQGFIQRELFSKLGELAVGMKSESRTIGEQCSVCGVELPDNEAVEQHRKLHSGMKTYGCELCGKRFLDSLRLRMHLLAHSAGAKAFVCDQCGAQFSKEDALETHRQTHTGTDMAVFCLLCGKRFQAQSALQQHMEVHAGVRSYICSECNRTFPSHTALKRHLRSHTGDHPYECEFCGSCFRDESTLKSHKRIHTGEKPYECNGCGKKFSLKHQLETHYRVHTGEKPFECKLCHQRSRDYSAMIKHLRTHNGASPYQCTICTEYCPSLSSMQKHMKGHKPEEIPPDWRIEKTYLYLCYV
B2: 14-3-3 protein sigma (Homo sapiens), P31947 (parent)
chain: B1 chain
partner: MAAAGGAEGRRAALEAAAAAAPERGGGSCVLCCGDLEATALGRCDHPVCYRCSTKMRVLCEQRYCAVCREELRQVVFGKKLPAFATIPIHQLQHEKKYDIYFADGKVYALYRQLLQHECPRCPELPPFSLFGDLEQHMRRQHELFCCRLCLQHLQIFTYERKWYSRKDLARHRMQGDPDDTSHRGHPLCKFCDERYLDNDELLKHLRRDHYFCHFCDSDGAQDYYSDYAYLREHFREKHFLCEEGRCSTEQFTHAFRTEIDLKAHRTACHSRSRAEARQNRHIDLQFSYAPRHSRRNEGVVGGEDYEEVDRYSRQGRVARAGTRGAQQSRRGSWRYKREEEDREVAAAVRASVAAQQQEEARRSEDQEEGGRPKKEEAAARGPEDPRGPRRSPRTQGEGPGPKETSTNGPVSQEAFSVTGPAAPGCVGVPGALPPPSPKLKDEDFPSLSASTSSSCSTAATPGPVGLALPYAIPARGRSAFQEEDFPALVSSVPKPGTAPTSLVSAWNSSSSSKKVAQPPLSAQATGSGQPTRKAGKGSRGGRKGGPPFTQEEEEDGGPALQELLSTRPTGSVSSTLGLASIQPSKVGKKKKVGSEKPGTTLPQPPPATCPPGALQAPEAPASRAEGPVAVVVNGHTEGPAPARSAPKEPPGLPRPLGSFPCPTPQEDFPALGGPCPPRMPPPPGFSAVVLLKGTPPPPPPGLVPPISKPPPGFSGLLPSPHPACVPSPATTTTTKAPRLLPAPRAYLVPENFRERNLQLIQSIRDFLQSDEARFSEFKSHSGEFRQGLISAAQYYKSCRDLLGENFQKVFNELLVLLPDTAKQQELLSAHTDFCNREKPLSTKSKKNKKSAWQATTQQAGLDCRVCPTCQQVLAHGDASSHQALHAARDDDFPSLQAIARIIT
B3: 14-3-3 protein sigma (Homo sapiens), P31947 (parent)
chain: B1 chain
partner: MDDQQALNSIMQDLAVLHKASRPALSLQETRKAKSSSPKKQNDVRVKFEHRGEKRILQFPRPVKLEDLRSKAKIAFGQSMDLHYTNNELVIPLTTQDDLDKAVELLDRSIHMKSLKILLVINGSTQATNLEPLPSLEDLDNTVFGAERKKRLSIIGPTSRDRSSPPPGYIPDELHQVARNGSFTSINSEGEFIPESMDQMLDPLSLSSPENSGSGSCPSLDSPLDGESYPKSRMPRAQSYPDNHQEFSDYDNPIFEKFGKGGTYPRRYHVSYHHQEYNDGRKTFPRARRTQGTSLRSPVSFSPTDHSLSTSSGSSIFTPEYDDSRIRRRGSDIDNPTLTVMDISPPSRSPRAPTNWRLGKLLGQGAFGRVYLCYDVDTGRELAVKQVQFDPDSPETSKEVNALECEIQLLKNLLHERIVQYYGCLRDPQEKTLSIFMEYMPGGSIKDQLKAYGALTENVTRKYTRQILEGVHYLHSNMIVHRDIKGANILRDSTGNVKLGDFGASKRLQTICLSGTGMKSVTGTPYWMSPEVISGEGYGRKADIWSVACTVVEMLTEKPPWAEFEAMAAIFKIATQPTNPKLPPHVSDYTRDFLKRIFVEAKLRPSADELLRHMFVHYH
B4: 14-3-3 protein sigma (Homo sapiens), P31947 (parent)
chain: B1 chain
partner: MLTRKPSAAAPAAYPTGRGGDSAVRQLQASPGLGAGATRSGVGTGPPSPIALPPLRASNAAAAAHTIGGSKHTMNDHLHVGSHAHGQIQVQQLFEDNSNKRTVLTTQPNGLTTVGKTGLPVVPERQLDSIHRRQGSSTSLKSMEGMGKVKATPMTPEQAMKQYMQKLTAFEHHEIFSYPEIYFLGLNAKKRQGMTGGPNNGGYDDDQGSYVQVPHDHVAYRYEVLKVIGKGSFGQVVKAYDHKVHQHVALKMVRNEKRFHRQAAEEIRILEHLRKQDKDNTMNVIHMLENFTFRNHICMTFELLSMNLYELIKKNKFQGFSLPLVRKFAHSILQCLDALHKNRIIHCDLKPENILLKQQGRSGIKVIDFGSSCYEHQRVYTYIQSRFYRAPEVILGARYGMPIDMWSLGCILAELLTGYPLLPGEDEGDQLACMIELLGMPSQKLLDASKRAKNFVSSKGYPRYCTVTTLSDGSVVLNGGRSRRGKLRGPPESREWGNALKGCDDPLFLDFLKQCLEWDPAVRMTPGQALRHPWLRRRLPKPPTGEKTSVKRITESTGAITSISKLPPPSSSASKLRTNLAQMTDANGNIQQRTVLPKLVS
B5: 14-3-3 protein sigma (Homo sapiens), P31947 (parent)
chain: B1 chain
partner: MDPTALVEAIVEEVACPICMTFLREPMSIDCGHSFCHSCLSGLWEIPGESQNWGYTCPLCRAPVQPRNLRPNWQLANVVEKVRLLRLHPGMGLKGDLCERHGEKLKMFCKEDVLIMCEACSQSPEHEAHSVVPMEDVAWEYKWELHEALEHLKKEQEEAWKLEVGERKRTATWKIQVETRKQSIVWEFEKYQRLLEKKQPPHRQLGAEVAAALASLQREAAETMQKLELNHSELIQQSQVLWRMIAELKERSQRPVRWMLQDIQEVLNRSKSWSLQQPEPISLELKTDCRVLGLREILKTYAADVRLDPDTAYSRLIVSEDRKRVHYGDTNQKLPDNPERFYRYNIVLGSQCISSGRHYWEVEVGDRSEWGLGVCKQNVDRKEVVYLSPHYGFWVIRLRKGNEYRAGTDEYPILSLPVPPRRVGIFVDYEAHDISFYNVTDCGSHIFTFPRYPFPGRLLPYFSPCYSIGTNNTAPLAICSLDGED

Variants of: B1
Conditions: with zbt16_human ZBTB16, Q05516

effect of a mutation on the interaction | Variant
decreasing interaction strength | K49E;R56E;V178D

Variants of: B2
Conditions: with zn598_human ZNF598, Q86UK7

effect of a mutation on the interaction | Variant
decreasing interaction strength | K49E;R56E;V178D

Variants of: B3
Conditions: with m3k2_human MAP3K2, Q9Y2U5

effect of a mutation on the interaction | Variant
decreasing interaction strength | K49E;R56E;V178D

Variants of: B4
Conditions: with dyrk2_human DYRK2, Q92630

effect of a mutation on the interaction | Variant
decreasing interaction strength | K49E;R56E;V178D

Variants of: B5
Conditions: with tri68_human TRIM68, Q6AZZ1

effect of a mutation on the interaction | Variant
decreasing interaction strength | K49E;R56E;V178D

From IntAct's records for PubMed 36931259
